Measurements: patent publication US6429014B1, “Monoterpene synthases from grand fir (Abies grandis)” (Washington State University Research Foundation, priority 1997, dated 2002)

Assay: Terpene synthase assay and GC-MS / chiral GC product identification of recombinant enzymes expressed from pSBET in E. coli BL21(DE3) (Example 11)
Type: biochemical
Conditions: extracts of induced cells
Procedure: For functional expression, bacterial strains E. coli BL21(DE3)/pSAG2(M), E. coli BL21(DE3)/pSAG2(R), E. coli BL21(DE3)/pSAG3(R), E. coli BL21(DE3)/pSAG6(M), E. coli BL21(DE3/pSAG6(R), E. coli BL21(DE3)/pSAG8(M), E. coli BL21(DE3)/pSAG9(M), E. coli BL21(DE3)/pSAG11(M) and E. coli BL21(DE3)/SAG11(R) were grown to A600=0.5 at 37° C. in 5 ml of Luria-Bertani medium (Sambrook, J., Fritsch, E. F., and Maniatis, T. (1989) Molecular Cloning: A Laboratory Manual, 2nd Ed., pp. 7.20-7.43, Cold Spring Harbor, N.Y.) supplemented with 30 μg kanamycin/ml. Cultures were then induced by addition of 1 mM isopropyl-1-thio-β-D-galactopyranoside and grown for another 12 h at 20° C. Cells were harvested by centrifugation and disrupted by sonication followed by centrifugation, and the resulting soluble enzyme preparations were assayed for monoterpene, sesquiterpene and diterpene synthase activity using the appropriate radiolabeled substrate as described previously (Bohlmann, J., Steele, C. L., and Croteau, R. (1997) J. Biol. Chem. 272, 21784-21792). This assay involves the isolation and separation of terpene olefins and oxygenated terpenes by column chromatography on silica, followed by scintillation counting to determine conversion rate. GC-MS analysis is employed for product identification, by comparison of retention times and mass spectra to those of authentic standards (Bohlmann, J., Steele, C. L., and Croteau, R. (1997) J. Biol Chem. 272, 21784-21792); assignment of absolute configuration is based upon chiral column capillary GC and matching of retention time to that of the corresponding enantiomer (Lewinsohn, E., Savage, T. J., Gijzen, M., and Croteau, R. (1993) Phytochem. Anal. 4, 220-225). To insure production of sufficient material for identification, the standard assay (Bohlmann, J., Steele, C. L., and Croteau, R. (1997) J. Biol. Chem. 272, 21784-21792) was scaled up by a factor of 20.
Initially, the four pSBET plasmids pSAG6(M), pSAG8(M), pSAG9(M) and pSAG11(M), containing the full-length cDNA inserts of ag6 (SEQ ID NO:64), ag8 (SEQ ID NO:66), ag9 (SEQ ID NO:77) and ag11 (SEQ ID NO:68), respectively, were expressed in E. coli BL21(DE3). Extracts of the induced, transformed bacterial cells were assayed for monoterpene, sesquiterpene and diterpene synthase activity using the corresponding labeled C10, C15 and C20 prenyl diphosphate substrates (Bohlmann, J., Steele, C. L., and Croteau, R. (1997) J. Biol. Chem. 272, 21784-21792). […] Since it is known that the relatively large amino-terminal transit peptide of plant terpene synthases can impair expression of the functional preprotein in E. coli and promote the formation of intractable inclusion bodies (Williams, D. C., McGarvey, D. J., Katahira, E. J., and Croteau, R. (1998) Biochemisiry 37, 12213-12220), the“pseudomature” forms of ag6 (SEQ ID NO:64) and ag11 (SEQ ID NO:68) were prepared by truncation of the cDNAs to insert a starting methionine immediately upstream of their tandem arginine elements (R59R 60 for ag6 (SEQ ID NO:64), R^71R^72 for ag11 (SEQ ID NO:68)) for expression in E. coli BL21(DE3)/pSAG6(R) and E. coli BL21(DE3)/pSAG11(R). Similar truncations of previously characterized ag2.2 (SEQ ID NO:1) (myrcene synthase, R^64R^65) and ag3.18 (SEQ ID NO:3) ((−)-pinene synthase, (SEQ ID NO:5) R^64R^65) (Bohlmann, J., Steele, C. L., and Croteau, R. (1997) J. Biol. Chem. 272, 21784-21792) were prepared for expression from pSBET as controls for the possible alteration of product yield and distribution resulting from truncation.
Monoterpenes generated at preparative scale from geranyl diphosphate by the recombinant enzymes encoded by ag6 (SEQ ID NO:64), ag8 (SEQ ID NO:66), ag9 (SEQ ID NO:77) and ag11 (SEQ ID NO:68) were analyzed by GC-MS and chiral phase (β-cyclodextrin) capillary GC, and identified by comparison of retention times and mass spectra to authentic standards (FIGS. 6-9). […] The enzyme encoded by ag6 (SEQ ID NO:65) is therefore designated as (−)-1S,4R-camphene synthase. […]

B1: AG3.18: recombinant (−)-pinene synthase from Grand fir encoded by cDNA clone AG3.18 (SEQ ID NO:3; protein SEQ ID NO:4) (protein, listed as Abies grandis)
chain: MALVSTAPLASKSCLHKSLISSTHELKALSRTIPALGMSRRGKSITPSISMSSTTVVTDDGVRRRMGDFHSNLWDDDVIQSLPTAYEEKSYLERAEKLIGEVKNMFNSMSLEDGELMSPLNDLIQRLWIVDSLERLGIHRHFKDEIKSALDYVYSYWGENGIGCGRESVVTDLNSTALGLRTLRLHGYPVSSDVFKAFKGQNGQFSCSENIQTDEEIRGVLNLFRASLIAFPGEKIMDEAEIFSTKYLKEALQKIPVSSLSREIGDVLEYGWHTYLPRLEARNYIQVFGQDTENTKSYVKSKKLLELAKLEFNIFQSLQKRELESLVRWWKESGFPEMTFCRHRHVEYYTLASCIAFEPQHSGFRLGFAKTCHLITVLDDMYDTFGTVDELELFTATMKRWDPSSIDCLPEYMKGVYIAVYDTVNEMAREAEEAQGRDTLTYAREAWEAYIDSYMQEARWIATGYLPSFDEYYENGKVSCGHRISALQPILTMDIPFPDHILKEVDFPSKLNDLACAILRLRGDTRCYKADRARGEEASSISCYMKDNPGVSEEDALDHINAMISDVIKGLNWELLKPDINVPISAKKHAFDIARAFHYGYKYRDGYSVANVETKSLVTRTLLESVPL
- terpene synthase activity on expression from pSBET in E. coli BL21(DE3): high level expression of activity
